For assay [1], the target named is SARS-CoV-2 S protein receptor-binding domain RBDv1 (319–541) with C-terminal c-myc and 6xHis tags (SARS-CoV-2) (UniProt P0DTC2). Put plainly: non-reducing SDS-PAGE with gel densitometry.
For assay [2], the target named is SARS-CoV-2 S protein receptor-binding domain RBDv2 (320–537) with C-terminal c-myc and 10xHis tags (SARS-CoV-2) (UniProt P0DTC2). Put plainly: non-reducing SDS-PAGE with gel densitometry.

On to “SARS-CoV-2 S protein receptor-binding domain RBDv1 (319–541) with C-terminal c-myc and 6xHis tags (from UniProt P0DTC2 319-541) (domain or fragment)”, for which the stoichiometry N (commonly the number of molecules, sites or subunits per partner or assembly) in assay [1] was determined as 2.

In assay [2], “SARS-CoV-2 S protein receptor-binding domain RBDv2 (320–537) with C-terminal c-myc and 10xHis tags (from UniProt P0DTC2 320-537) (domain or fragment)” displayed a percent covalent dimer of 6% and a stoichiometry N of 2.
